# Laboratory results taken from IntAct's records for PubMed 17954917.
# B1: Signal transducer and activator of transcription 3 (Rattus norvegicus (Rat)), P52631 (parent)
# chain: MAQWNQLQQLDTRYLEQLHQLYSDSFPMELRQFLAPWIESQDWAYAASKESHATLVFHNLLGEIDQQYSRFLQESNVLYQHNLRRIKQFLQSRYLEKPMEIARIVARCLWEESRLLQTAATAAQQGGQANHPTAAVVTEKQQMLEQHLQDVRKRVQDLEQKMKVVENLQDDFDFNYKTLKSQGDMQDLNGNNQSVTRQKMQQLEQMLTALDQMRRSIVSELAGLLSAMEYVQKTLTDEELADWKRRQQIACIGGPPNICLDRLENWITSLAESQLQTRQQIKKLEELQQKVSYKGDPIVQHRPMLEERIVDLFRNLMKSAFVVERQPCMPMHPDRPLVIKTGVQFTTKVRLLVKFPELNYQLKIKVCIDKDSGDVAALRGSRKFNILGTNTKVMNMEESNNGSLSAEFKHLTLREQRCGNGGRANCDASLIVTEELHLITFETEVYHQGLKIDLETHSLPVVVISNICQMPNAWASILWYNMLTNNPKNVNFFTKPPIGTWDQVAEVLSWQFSSTTKRGLSIEQLTTLAEKLLGPGVNYSGCQITWAKFCKENMAGKGFSFWVWLDNIIDLVKKYILALWNEGYIMGFISKERERAILSTKPPGTFLLRFSESSKEGGVTFTWVEKDISGKTQIQSVEPYTKQQLNNMSFAEIIMGYKIMDATNILVSPLVYLYPDIPKEEAFGKYCRPESQEHPEADPGSAAPYLKTKFICVTPTTCSNTIDLPMSPRTLDSLMQFGNNGEGAEPSAGGQFESLTFDMDLTSECATSPM
# partner: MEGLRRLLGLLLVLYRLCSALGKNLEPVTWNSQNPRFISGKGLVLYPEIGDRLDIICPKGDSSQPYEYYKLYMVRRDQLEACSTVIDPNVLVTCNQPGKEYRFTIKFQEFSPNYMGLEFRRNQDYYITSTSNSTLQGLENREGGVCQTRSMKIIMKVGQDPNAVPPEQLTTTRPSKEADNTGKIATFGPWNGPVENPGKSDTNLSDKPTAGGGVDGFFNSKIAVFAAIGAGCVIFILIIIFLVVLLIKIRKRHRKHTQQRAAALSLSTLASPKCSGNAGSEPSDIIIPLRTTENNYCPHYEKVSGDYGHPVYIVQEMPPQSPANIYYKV
# B2: Ephrin-B1 (Xenopus laevis (African clawed frog)), O13097 (parent)
# chain: B1 partner
# Variants of: B1
# Conditions: with efnb1_xenla efnb1, O13097
row,Variant,effect of a mutation on the interaction
1,R609L,disrupting interaction strength

# Variants of: B2
# Conditions: with stat3_rat Stat3, P52631
row,Variant,effect of a mutation on the interaction
1,MEGLRRLLGLLLVLYRLCSALGKNLEPVTWNSQNPRFISGKGLVLYPEIGDRLDIICPKGDSSQPYEYYKLYMVRRDQLEACSTVIDPNVLVTCNQPGKEYRFTIKFQEFSPNYMGLEFRRNQDYYITSTSNSTLQGLENREGGVCQTRSMKIIMKVGQDPNAVPPEQLTTTRPSKEADNTGKIATFGPWNGPVENPGKSDTNLSDKPTAGGGVDGFFNSKIAVFAAIGAGCVIFILIIIFLVVLLIKIRKRHRKHTQQRAAALSLSTLASPKCSGNAGSEPSDIIIPLRTTENNFCPHYEKVSGDFGHPVFIVQEMPPQSPANIYYKV [Y296F;Y307F;Y312F],decreasing interaction strength
2,MEGLRRLLGLLLVLYRLCSALGKNLEPVTWNSQNPRFISGKGLVLYPEIGDRLDIICPKGDSSQPYEYYKLYMVRRDQLEACSTVIDPNVLVTCNQPGKEYRFTIKFQEFSPNYMGLEFRRNQDYYITSTSNSTLQGLENREGGVCQTRSMKIIMKVGQDPNAVPPEQLTTTRPSKEADNTGKIATFGPWNGPVENPGKSDTNLSDKPTAGGGVDGFFNSKIAVFAAIGAGCVIFILIIIFLVVLLIKIRKRHRKHTQQRAAALSLSTLASPKCSGNAGSEPSDIIIPLRTTENNFCPHYEKVSGDYGHPVFIVQEMPPQSPANIYYKV [Y296F;Y312F],decreasing interaction strength
